Test results published in article doi:10.1101/2022.12.21.520923 (bioRxiv, 2022).
Changes are numbered by the printed parent chain.

T1: full-length His-p115 (UniProt O60763 1-962)
T1 sequence: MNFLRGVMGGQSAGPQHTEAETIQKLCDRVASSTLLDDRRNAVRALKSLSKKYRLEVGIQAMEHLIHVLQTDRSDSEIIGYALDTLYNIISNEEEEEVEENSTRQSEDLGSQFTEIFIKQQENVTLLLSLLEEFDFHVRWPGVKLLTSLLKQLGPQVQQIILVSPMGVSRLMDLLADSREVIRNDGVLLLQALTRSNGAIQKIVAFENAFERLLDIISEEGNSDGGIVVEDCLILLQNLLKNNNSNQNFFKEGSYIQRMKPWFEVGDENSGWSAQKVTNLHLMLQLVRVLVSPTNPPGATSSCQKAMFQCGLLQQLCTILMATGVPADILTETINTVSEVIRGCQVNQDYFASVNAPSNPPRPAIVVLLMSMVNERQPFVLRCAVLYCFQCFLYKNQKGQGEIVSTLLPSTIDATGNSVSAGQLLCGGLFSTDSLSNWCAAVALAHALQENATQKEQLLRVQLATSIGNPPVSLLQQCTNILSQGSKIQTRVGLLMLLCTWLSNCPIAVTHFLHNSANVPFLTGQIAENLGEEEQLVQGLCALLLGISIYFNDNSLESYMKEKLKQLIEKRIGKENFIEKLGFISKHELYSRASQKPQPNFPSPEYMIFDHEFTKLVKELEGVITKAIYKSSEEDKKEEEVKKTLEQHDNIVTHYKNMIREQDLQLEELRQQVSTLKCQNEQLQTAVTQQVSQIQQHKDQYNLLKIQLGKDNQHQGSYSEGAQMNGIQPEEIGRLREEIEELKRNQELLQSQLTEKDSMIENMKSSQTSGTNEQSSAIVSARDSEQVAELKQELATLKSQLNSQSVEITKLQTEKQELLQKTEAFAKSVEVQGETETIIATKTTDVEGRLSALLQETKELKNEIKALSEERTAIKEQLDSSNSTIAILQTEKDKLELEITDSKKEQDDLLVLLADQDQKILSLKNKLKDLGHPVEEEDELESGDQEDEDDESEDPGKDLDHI

T2: His-tagged CHC22 Hub (human, UniProt P53675 1074-1640)
T2 sequence: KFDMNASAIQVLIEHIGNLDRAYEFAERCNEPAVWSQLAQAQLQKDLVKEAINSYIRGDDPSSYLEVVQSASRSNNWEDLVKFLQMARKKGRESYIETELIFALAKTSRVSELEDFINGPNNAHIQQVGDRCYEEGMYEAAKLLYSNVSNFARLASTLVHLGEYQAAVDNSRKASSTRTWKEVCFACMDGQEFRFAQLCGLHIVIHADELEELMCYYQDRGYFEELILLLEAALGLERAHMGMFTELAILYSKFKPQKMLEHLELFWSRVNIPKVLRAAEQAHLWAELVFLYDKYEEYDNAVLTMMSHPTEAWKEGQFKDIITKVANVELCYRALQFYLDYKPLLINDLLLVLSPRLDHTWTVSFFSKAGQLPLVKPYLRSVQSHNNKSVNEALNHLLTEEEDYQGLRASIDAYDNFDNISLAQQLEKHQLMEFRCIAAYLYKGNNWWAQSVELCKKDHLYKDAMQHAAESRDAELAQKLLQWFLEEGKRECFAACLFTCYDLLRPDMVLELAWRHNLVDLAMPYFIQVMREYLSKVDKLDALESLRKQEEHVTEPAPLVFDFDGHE

T3: His-SUMO CHC17 terminal domain (human, UniProt Q00610 1-364)
T3 sequence: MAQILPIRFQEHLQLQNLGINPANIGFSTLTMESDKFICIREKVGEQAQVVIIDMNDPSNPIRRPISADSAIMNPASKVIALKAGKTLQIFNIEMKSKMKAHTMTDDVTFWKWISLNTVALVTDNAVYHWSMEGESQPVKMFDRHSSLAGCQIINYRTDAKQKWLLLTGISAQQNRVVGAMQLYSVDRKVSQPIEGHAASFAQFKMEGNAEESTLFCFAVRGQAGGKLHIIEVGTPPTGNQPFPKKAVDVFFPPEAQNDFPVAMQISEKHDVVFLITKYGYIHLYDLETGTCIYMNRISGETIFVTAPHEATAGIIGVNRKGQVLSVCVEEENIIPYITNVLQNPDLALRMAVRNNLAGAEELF

T4: full-length GST-SNX5 phosphomimetic S226E mutant (human, UniProt Q9Y5X3 1-404, S226E)
T4 sequence: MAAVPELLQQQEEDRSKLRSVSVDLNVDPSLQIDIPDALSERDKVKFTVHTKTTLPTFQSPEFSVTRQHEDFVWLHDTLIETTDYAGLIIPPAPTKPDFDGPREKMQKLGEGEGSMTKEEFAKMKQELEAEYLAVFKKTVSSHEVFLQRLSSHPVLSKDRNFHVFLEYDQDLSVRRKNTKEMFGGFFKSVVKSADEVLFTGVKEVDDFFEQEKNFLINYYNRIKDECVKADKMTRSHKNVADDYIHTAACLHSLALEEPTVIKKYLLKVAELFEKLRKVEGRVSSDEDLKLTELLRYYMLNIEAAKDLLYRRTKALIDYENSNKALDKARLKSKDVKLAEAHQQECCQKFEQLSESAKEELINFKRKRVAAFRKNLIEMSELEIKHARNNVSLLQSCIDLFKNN

T5: full-length GST-p115 (UniProt O60763 1-962)
T5 sequence: T1 sequence

B1: full-length GST-SNX5 (natural protein)
chain: T4 sequence with E226S
B2: GST-GGA2-HE (domain or fragment)
chain: GRVTFGNRVTSSLGDIPVSRVFQNPAGCMKTCPLIDLEVDNGPAQMGTVVPSLLHQDLAALGISDAPVTGMVSGQNCCEEKRNPSSSTLPGGGVQNPSADRNLLDLLSAQPAPCPLNYVSQKSVPKEVPPGTKSSPGWSWEAGPLAPSPSSQNTPLAQVFVPLESVKPSSLPPLIVYDRNGFRILLHFSQTGAPGHPEVQVLLLTMMSTAPQPVWDIMFQVAVPKSMRVKLQPASSSKLPAFSPLMPPAVISQMLLLDNPHKEPIRLRYKLTFNQGGQPFSEVGEVKDFPDLAVLGAA
B3: His-tagged CHC22 TxD (domain or fragment)
chain: WAQSVELCKKDHLYKDAMQHAAESRDAELAQKLLQWFLEEGKRECFAACLFTCYDLLRPDMVLELAWRHNLVDLAMPYFIQVMREYLSKVDKLDALESLRKQEEHVTEPAPLVFDFDGHE
B4: His-SUMO-tagged CHC22 terminal domain (domain or fragment)
chain: MAQILPVRFQEHFQLQNLGINPANIGFSTLTMESDKFICIREKVGEQAQVTIIDMSDPMAPIRRPISAESAIMNPASKVIALKAGKTLQIFNIEMKSKMKAHTMAEEVIFWKWVSVNTVALVTETAVYHWSMEGDSQPMKMFDRHTSLVGCQVIHYRTDEYQKWLLLVGISAQQNRVVGAMQLYSVDRKVSQPIEGHAAAFAEFKMEGNAKPATLFCFAVRNPTGGKLHIIEVGQPAAGNQPFVKKAVDVFFPPEAQNDFPVAMQIGAKHGVIYLITKYGYLHLYDLESGVCICMNRISADTIFVTAPHKPTSGIIGVNKKGQVLSVCVEEDNIVNYATNVLQNPDLGLRLAVRSNLAGAEKLF

How the values were obtained:
Test in all cases: pull-down
[1] = molecular target: full-length His-tagged SNX1 (UniProt Q13596 1-522)
full-length His-tagged SNX1, sequence (Q13596 whole entry): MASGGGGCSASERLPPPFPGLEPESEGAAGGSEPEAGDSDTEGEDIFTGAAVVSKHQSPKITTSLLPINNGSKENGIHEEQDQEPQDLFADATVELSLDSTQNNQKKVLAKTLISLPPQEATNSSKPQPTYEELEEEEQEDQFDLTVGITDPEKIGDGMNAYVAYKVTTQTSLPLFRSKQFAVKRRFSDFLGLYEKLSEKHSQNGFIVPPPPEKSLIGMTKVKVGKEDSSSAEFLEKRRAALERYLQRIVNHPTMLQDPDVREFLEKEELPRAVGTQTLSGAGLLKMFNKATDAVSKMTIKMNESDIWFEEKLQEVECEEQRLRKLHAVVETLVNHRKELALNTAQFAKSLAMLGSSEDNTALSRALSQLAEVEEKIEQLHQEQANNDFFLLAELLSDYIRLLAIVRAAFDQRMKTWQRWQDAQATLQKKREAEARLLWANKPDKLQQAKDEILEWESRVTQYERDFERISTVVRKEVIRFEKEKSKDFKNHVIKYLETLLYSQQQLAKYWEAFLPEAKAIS

full-length His-p115 = molecular target: T1, full-length His-p115
His-tagged CHC22 Hub = molecular target: T2, His-tagged CHC22 Hub
[2] = molecular target: B4
[3] = molecular target: T3, His-SUMO CHC17 terminal domain
full-length GST-SNX5 = molecular target: B1
[4] = molecular target: T4, full-length GST-SNX5 phosphomimetic …
full-length GST-p115 = molecular target: T5, full-length GST-p115

Binder: B1
binding result [1]: binds | binding result (full-length His-p115): binds | binding result (His-tagged CHC22 Hub): binds

Binder: B2
binding result [2]: binds | binding result [3]: binds

Binder: B3
binding result (full-length GST-SNX5): binds | binding result [4]: binds

Binder: B4
binding result (full-length GST-p115): binds
